As usually defined, the Kd is the free concentration of one partner at which half of the binding sites on the other are occupied at equilibrium, for simple one-to-one binding.

The target of the assay is recombinant CSABP protein (CSABP-FL) (human) (UniProt Q9H6S0). Nature of the assay: SPR, Biacore 3000; recombinant CSABP-FL immobilized on CM5 chip by amine coupling, CsA in PBS-8% DMSO as analyte. For orientation: In SPR one partner is held on a chip, and binding of the other changes the refractive index at the surface.

For cyclosporin A (CsA) (peptide), the Kd came to 120 nM.
